Assay results reported in publication PMC10602139, “Architecture and rearrangements of a sperm-specific Na^+/H^+ exchanger” (Research Square, 2023).

Key:
[1] = molecular target: the molecule itself; assay: SEC; FSEC of eGFP fusion constructs affinity purified in digitonin micelles; Superose 6 10/300, GFP fluorescence detected
[2] = molecular target: the molecule itself; assay: SEC; FSEC, thermal disassembly: protein diluted 200-fold into destabilizing buffer pH 6 without or with cAMP (up to 5 mM), heated 10 min to the desired temperature; ratio of monomer to dimer species (ρ) against temperature; dimer to monomers

Protein	stoichiometry N [1]	binding result [2]	further results
sp9C1 truncated at amino acid position 494, eGFP fusion (domain or fragment, Strongylocentrotus purpuratus, UniProt A3RL54 30-494, looked up, the ARD is deleted, the ion-exchange domain (ED) remains; source: HEK293F, transiently transfected; not shown: mEGFP, C-terminal, kept; Twinstrep, C-terminal, kept) SSGGSGHTPTTQATHADDHDLTTHNGTEEHDDGHDDGHDDLHAHAPKVIVFISGSCLFGAISRSLFKKLPIPYTVVLLILGAILGVVASNVPLVEEHTRDVAHMDPHVLLQIFLPVLIFESAFAMDVHTFMRSFSQVCILALFGLVVASVLTAVLAMNLFNYNWNFSEAMMFGAIMSATDPVAVVALLKDLGASKQLGTIIEGESLLNDGCAIVIFNVFMKMVFFPQLTSTVGQNVLYFLQVAVAGPLWGYAVAKVTVFFLSHIFNDALVEITITLAATYLTYYIGDIWLEVSGVLAVVVLGLIVNAEKTSISPEVEVFLHRFWEMLAYLANTLIFMMVGVVVTQKALVAVDKMDWFYLIILYLAITIIRGMVISLFSPILSRIGYGLTWRNAVIMTWGGLRGAVGLALALVVENLAGNDVIGSKFLFHTAGIVVLTLVINATTIQTLLRILGMSDISIPKRLAM	2	–	–
sp9C1 truncated at amino acid position 950, eGFP fusion (domain or fragment, Strongylocentrotus purpuratus, UniProt A3RL54 30-950, looked up, SLC9C1, Strongylocentrotus purpuratus, truncated at amino acid position 950; the CNBD, βR2 and the C-terminal tail are deleted; also called 950 construct; source: HEK293F, transiently transfected; not shown: mEGFP, C-terminal, kept; Twinstrep, C-terminal, kept) SSGGSGHTPTTQATHADDHDLTTHNGTEEHDDGHDDGHDDLHAHAPKVIVFISGSCLFGAISRSLFKKLPIPYTVVLLILGAILGVVASNVPLVEEHTRDVAHMDPHVLLQIFLPVLIFESAFAMDVHTFMRSFSQVCILALFGLVVASVLTAVLAMNLFNYNWNFSEAMMFGAIMSATDPVAVVALLKDLGASKQLGTIIEGESLLNDGCAIVIFNVFMKMVFFPQLTSTVGQNVLYFLQVAVAGPLWGYAVAKVTVFFLSHIFNDALVEITITLAATYLTYYIGDIWLEVSGVLAVVVLGLIVNAEKTSISPEVEVFLHRFWEMLAYLANTLIFMMVGVVVTQKALVAVDKMDWFYLIILYLAITIIRGMVISLFSPILSRIGYGLTWRNAVIMTWGGLRGAVGLALALVVENLAGNDVIGSKFLFHTAGIVVLTLVINATTIQTLLRILGMSDISIPKRLAMAGAVRRIHEGQNRTLNMLKSDRFLADADWDIATAACEISDPYSALSDDENAPADELTLGERKSVCPGCKAMVPNEPSPREFADMMEEARLRMLKAEKISYWKQFEHGMLAREALRLLVQHAEVAADEKDQFILVDDLKKSWQIKGIYPWLKRKLEDLISEKKIAAIPMPKYKLGKLMYKICHHMAFEVTINIAIVLNIVPIIMEFVVQDKMASVSTMAAPGSTVSSEPSSLQKIEDALRISNYVFFVIYAIEAIVKILGLGRHYIVSHWNKFDAFILVVALVDIIIAETLLKGSITINLSSIKVVKLFRLLRGLRMLRLTKALIPKLILVVNGKINNQLSLGYDVGKGYIIGEEEVGKIIDRMVDNKKILRELKHISETGRLQVVKELGLLQREHPGIAVSVKTRQAIRTILNHSRETIHELQGAGLLDEMEAHKLELTVEIKMKRLMNAPSSIPP	2	–	–
sp9C1-eGFP, full length (FSEC sample) (natural protein, Strongylocentrotus purpuratus, UniProt A3RL54 30-1325, looked up, SLC9C1 (sperm-specific Na+/H+ exchanger), Strongylocentrotus purpuratus, full length; followed by a PreScission site and mEGFP-Twinstrep; A PreScission protease site lies between SLC9C1 and the mEGFP-Twinstrep tag; also called FL; FL-sp9C1; source: HEK293F, transiently transfected; not shown: mEGFP, C-terminal, kept; Twinstrep, C-terminal, kept) SSGGSGHTPTTQATHADDHDLTTHNGTEEHDDGHDDGHDDLHAHAPKVIVFISGSCLFGAISRSLFKKLPIPYTVVLLILGAILGVVASNVPLVEEHTRDVAHMDPHVLLQIFLPVLIFESAFAMDVHTFMRSFSQVCILALFGLVVASVLTAVLAMNLFNYNWNFSEAMMFGAIMSATDPVAVVALLKDLGASKQLGTIIEGESLLNDGCAIVIFNVFMKMVFFPQLTSTVGQNVLYFLQVAVAGPLWGYAVAKVTVFFLSHIFNDALVEITITLAATYLTYYIGDIWLEVSGVLAVVVLGLIVNAEKTSISPEVEVFLHRFWEMLAYLANTLIFMMVGVVVTQKALVAVDKMDWFYLIILYLAITIIRGMVISLFSPILSRIGYGLTWRNAVIMTWGGLRGAVGLALALVVENLAGNDVIGSKFLFHTAGIVVLTLVINATTIQTLLRILGMSDISIPKRLAMAGAVRRIHEGQNRTLNMLKSDRFLADADWDIATAACEISDPYSALSDDENAPADELTLGERKSVCPGCKAMVPNEPSPREFADMMEEARLRMLKAEKISYWKQFEHGMLAREALRLLVQHAEVAADEKDQFILVDDLKKSWQIKGIYPWLKRKLEDLISEKKIAAIPMPKYKLGKLMYKICHHMAFEVTINIAIVLNIVPIIMEFVVQDKMASVSTMAAPGSTVSSEPSSLQKIEDALRISNYVFFVIYAIEAIVKILGLGRHYIVSHWNKFDAFILVVALVDIIIAETLLKGSITINLSSIKVVKLFRLLRGLRMLRLTKALIPKLILVVNGKINNQLSLGYDVGKGYIIGEEEVGKIIDRMVDNKKILRELKHISETGRLQVVKELGLLQREHPGIAVSVKTRQAIRTILNHSRETIHELQGAGLLDEMEAHKLELTVEIKMKRLMNAPSSIPPPPPENLLKNVSWLAGDMKLIDFIKARASLLHFDYGEVIVREGDESDGLFLIVSGLVKLYGKSAFLDHDNPPVTAGSEENEVFEDYLTVGNVIGEMGVLTKKPRNATVTCETTVQVYFITAEDMNIAIDTFTLYPSLEYRLWRVVAIRIATPLIMEQMAFQGWTQEKVKLHLERGYLVDLAESHFQFNIDATLEDVILINGTAYNAHTREEIRSPCLISRTVHKLTFQYTATEEPRLFVVRNAEYNGPILDGRLDVDSKRSLISITEISSNMCLKHAAELRQKNSKVMLSRKSSGAAAKEEEDCIPNTSDVEQAAGVSPSVPTKTTPKPKSFLPSLGLSMSKERVNGEAVEESPVKTKQGEETPETEEGAAPRVNV	2	–	ρsat (saturating ratio of monomer to dimer species), 5 mM cAMP [2]: 2.4; ρsat (saturating ratio of monomer to dimer species), cAMP-free [2]: ~0.9
sp9C1 K880A mutant, eGFP fusion (natural protein, Strongylocentrotus purpuratus, UniProt A3RL54 30-1325, looked up, SLC9C1, Strongylocentrotus purpuratus, with K880A; also called R880A (as printed once); source: HEK293F, transiently transfected; not shown: mEGFP, C-terminal, kept; Twinstrep, C-terminal, kept) SSGGSGHTPTTQATHADDHDLTTHNGTEEHDDGHDDGHDDLHAHAPKVIVFISGSCLFGAISRSLFKKLPIPYTVVLLILGAILGVVASNVPLVEEHTRDVAHMDPHVLLQIFLPVLIFESAFAMDVHTFMRSFSQVCILALFGLVVASVLTAVLAMNLFNYNWNFSEAMMFGAIMSATDPVAVVALLKDLGASKQLGTIIEGESLLNDGCAIVIFNVFMKMVFFPQLTSTVGQNVLYFLQVAVAGPLWGYAVAKVTVFFLSHIFNDALVEITITLAATYLTYYIGDIWLEVSGVLAVVVLGLIVNAEKTSISPEVEVFLHRFWEMLAYLANTLIFMMVGVVVTQKALVAVDKMDWFYLIILYLAITIIRGMVISLFSPILSRIGYGLTWRNAVIMTWGGLRGAVGLALALVVENLAGNDVIGSKFLFHTAGIVVLTLVINATTIQTLLRILGMSDISIPKRLAMAGAVRRIHEGQNRTLNMLKSDRFLADADWDIATAACEISDPYSALSDDENAPADELTLGERKSVCPGCKAMVPNEPSPREFADMMEEARLRMLKAEKISYWKQFEHGMLAREALRLLVQHAEVAADEKDQFILVDDLKKSWQIKGIYPWLKRKLEDLISEKKIAAIPMPKYKLGKLMYKICHHMAFEVTINIAIVLNIVPIIMEFVVQDKMASVSTMAAPGSTVSSEPSSLQKIEDALRISNYVFFVIYAIEAIVKILGLGRHYIVSHWNKFDAFILVVALVDIIIAETLLKGSITINLSSIKVVKLFRLLRGLRMLRLTKALIPKLILVVNGKINNQLSLGYDVGKGYIIGEEEVGKIIDRMVDNKKILRELKHISETGRLQVVAELGLLQREHPGIAVSVKTRQAIRTILNHSRETIHELQGAGLLDEMEAHKLELTVEIKMKRLMNAPSSIPPPPPENLLKNVSWLAGDMKLIDFIKARASLLHFDYGEVIVREGDESDGLFLIVSGLVKLYGKSAFLDHDNPPVTAGSEENEVFEDYLTVGNVIGEMGVLTKKPRNATVTCETTVQVYFITAEDMNIAIDTFTLYPSLEYRLWRVVAIRIATPLIMEQMAFQGWTQEKVKLHLERGYLVDLAESHFQFNIDATLEDVILINGTAYNAHTREEIRSPCLISRTVHKLTFQYTATEEPRLFVVRNAEYNGPILDGRLDVDSKRSLISITEISSNMCLKHAAELRQKNSKVMLSRKSSGAAAKEEEDCIPNTSDVEQAAGVSPSVPTKTTPKPKSFLPSLGLSMSKERVNGEAVEESPVKTKQGEETPETEEGAAPRVNV	–	binds	–
sp9C1 Y1035C mutant, eGFP fusion (natural protein, Strongylocentrotus purpuratus, UniProt A3RL54 30-1325, looked up, SLC9C1, Strongylocentrotus purpuratus, with Y1035C; source: HEK293F, transiently transfected; not shown: mEGFP, C-terminal, kept; Twinstrep, C-terminal, kept) SSGGSGHTPTTQATHADDHDLTTHNGTEEHDDGHDDGHDDLHAHAPKVIVFISGSCLFGAISRSLFKKLPIPYTVVLLILGAILGVVASNVPLVEEHTRDVAHMDPHVLLQIFLPVLIFESAFAMDVHTFMRSFSQVCILALFGLVVASVLTAVLAMNLFNYNWNFSEAMMFGAIMSATDPVAVVALLKDLGASKQLGTIIEGESLLNDGCAIVIFNVFMKMVFFPQLTSTVGQNVLYFLQVAVAGPLWGYAVAKVTVFFLSHIFNDALVEITITLAATYLTYYIGDIWLEVSGVLAVVVLGLIVNAEKTSISPEVEVFLHRFWEMLAYLANTLIFMMVGVVVTQKALVAVDKMDWFYLIILYLAITIIRGMVISLFSPILSRIGYGLTWRNAVIMTWGGLRGAVGLALALVVENLAGNDVIGSKFLFHTAGIVVLTLVINATTIQTLLRILGMSDISIPKRLAMAGAVRRIHEGQNRTLNMLKSDRFLADADWDIATAACEISDPYSALSDDENAPADELTLGERKSVCPGCKAMVPNEPSPREFADMMEEARLRMLKAEKISYWKQFEHGMLAREALRLLVQHAEVAADEKDQFILVDDLKKSWQIKGIYPWLKRKLEDLISEKKIAAIPMPKYKLGKLMYKICHHMAFEVTINIAIVLNIVPIIMEFVVQDKMASVSTMAAPGSTVSSEPSSLQKIEDALRISNYVFFVIYAIEAIVKILGLGRHYIVSHWNKFDAFILVVALVDIIIAETLLKGSITINLSSIKVVKLFRLLRGLRMLRLTKALIPKLILVVNGKINNQLSLGYDVGKGYIIGEEEVGKIIDRMVDNKKILRELKHISETGRLQVVKELGLLQREHPGIAVSVKTRQAIRTILNHSRETIHELQGAGLLDEMEAHKLELTVEIKMKRLMNAPSSIPPPPPENLLKNVSWLAGDMKLIDFIKARASLLHFDYGEVIVREGDESDGLFLIVSGLVKLYGKSAFLDHDNPPVTAGSEENEVFEDCLTVGNVIGEMGVLTKKPRNATVTCETTVQVYFITAEDMNIAIDTFTLYPSLEYRLWRVVAIRIATPLIMEQMAFQGWTQEKVKLHLERGYLVDLAESHFQFNIDATLEDVILINGTAYNAHTREEIRSPCLISRTVHKLTFQYTATEEPRLFVVRNAEYNGPILDGRLDVDSKRSLISITEISSNMCLKHAAELRQKNSKVMLSRKSSGAAAKEEEDCIPNTSDVEQAAGVSPSVPTKTTPKPKSFLPSLGLSMSKERVNGEAVEESPVKTKQGEETPETEEGAAPRVNV	–	binds	–
sp9C1 truncated at amino acid position 657, eGFP fusion (domain or fragment, Strongylocentrotus purpuratus, UniProt A3RL54 30-657, looked up, the ARD is partly deleted; source: HEK293F, transiently transfected; not shown: mEGFP, C-terminal, kept; Twinstrep, C-terminal, kept) SSGGSGHTPTTQATHADDHDLTTHNGTEEHDDGHDDGHDDLHAHAPKVIVFISGSCLFGAISRSLFKKLPIPYTVVLLILGAILGVVASNVPLVEEHTRDVAHMDPHVLLQIFLPVLIFESAFAMDVHTFMRSFSQVCILALFGLVVASVLTAVLAMNLFNYNWNFSEAMMFGAIMSATDPVAVVALLKDLGASKQLGTIIEGESLLNDGCAIVIFNVFMKMVFFPQLTSTVGQNVLYFLQVAVAGPLWGYAVAKVTVFFLSHIFNDALVEITITLAATYLTYYIGDIWLEVSGVLAVVVLGLIVNAEKTSISPEVEVFLHRFWEMLAYLANTLIFMMVGVVVTQKALVAVDKMDWFYLIILYLAITIIRGMVISLFSPILSRIGYGLTWRNAVIMTWGGLRGAVGLALALVVENLAGNDVIGSKFLFHTAGIVVLTLVINATTIQTLLRILGMSDISIPKRLAMAGAVRRIHEGQNRTLNMLKSDRFLADADWDIATAACEISDPYSALSDDENAPADELTLGERKSVCPGCKAMVPNEPSPREFADMMEEARLRMLKAEKISYWKQFEHGMLAREALRLLVQHAEVAADEKDQFILVDDLKKSWQIKGIYPWLKRKLEDLISEKKI	2	–	–
